Results: patent US20150344570A1 (published 2015)

B1: GpH7-A5/GpH7-B3 variant G237_02A/GpL16-k0 (antibody, human IgG1, kappa)
heavy 1: not shown
heavy 2: not shown
light: DIVMTQSPLSLPVTPGEPASISCQASESLVHSNRNTYLHWYLQKPGQSPQLLIYKVSNRFSGVPDRFSGSGSGTDFTLKISRVEAEDVGVYYCSQNTHVPPTFGQGTKVEIERTVAAPSVFIFPPSDEQLKSGTASVVCLLNNFYPREAKVQWKVDNALQSGNSQESVTEQDSKDSTYSLSSTLTLSKADYEKHKVYACEVTHQGLSSPVTKSFNRGEC
notes: Heterodimerized anti-glypican-3 IgG1; alteration in the GpH7-B3 chain only; also called He Ab
B2: GpH7-A5/GpH7-B3 variant L235_15Y/GpL16-k0 (antibody, human IgG1, kappa)
heavy 1: not shown
heavy 2: not shown
light: B1 light
notes: as for B1
B3: GpH7-A5/GpH7-B3 variant G237_15Y/GpL16-k0 (antibody, human IgG1, kappa)
heavy 1: not shown
heavy 2: not shown
light: B1 light
notes: as for B1
B4: GpH7-A5/GpH7-B3 variant P238_15Y/GpL16-k0 (antibody, human IgG1, kappa)
heavy 1: not shown
heavy 2: not shown
light: B1 light
notes: as for B1
B5: GpH7-A5/GpH7-B3 variant G237_19Q/GpL16-k0 (antibody, human IgG1, kappa)
heavy 1: not shown
heavy 2: not shown
light: B1 light
notes: as for B1
B6: GpH7-A5/GpH7-B3 variant P238_06M/GpL16-k0 (antibody, human IgG1, kappa)
heavy 1: not shown
heavy 2: not shown
light: B1 light
notes: as for B1
B7: GpH7-A5/GpH7-B3 variant G237_20W/GpL16-k0 (antibody, human IgG1, kappa)
heavy 1: not shown
heavy 2: not shown
light: B1 light
notes: as for B1
B8: GpH7-A5/GpH7-B3 variant P238_10E/GpL16-k0 (antibody, human IgG1, kappa)
heavy 1: not shown
heavy 2: not shown
light: B1 light
notes: as for B1
B9: GpH7-A5/GpH7-B3 variant L235_20W/GpL16-k0 (antibody, human IgG1, kappa)
heavy 1: not shown
heavy 2: not shown
light: B1 light
notes: as for B1
B10: GpH7-A5/GpH7-B3 variant G237_09D/GpL16-k0 (antibody, human IgG1, kappa)
heavy 1: not shown
heavy 2: not shown
light: B1 light
notes: as for B1
B11: GpH7-A5/GpH7-B3 variant L234_09D/GpL16-k0 (antibody, human IgG1, kappa)
heavy 1: not shown
heavy 2: not shown
light: B1 light
notes: as for B1
B12: GpH7-A5/GpH7-B3 variant P238_08L/GpL16-k0 (antibody, human IgG1, kappa)
heavy 1: not shown
heavy 2: not shown
light: B1 light
notes: as for B1
B13: GpH7-A5/GpH7-B3 variant G237_08L/GpL16-k0 (antibody, human IgG1, kappa)
heavy 1: not shown
heavy 2: not shown
light: B1 light
notes: as for B1
B14: GpH7-A5/GpH7-B3 variant S239_08L/GpL16-k0 (antibody, human IgG1, kappa)
heavy 1: not shown
heavy 2: not shown
light: B1 light
notes: as for B1
B15: GpH7-A5/GpH7-B3 variant G237_18N/GpL16-k0 (antibody, human IgG1, kappa)
heavy 1: not shown
heavy 2: not shown
light: B1 light
notes: as for B1
B16: GpH7-A5/GpH7-B3 variant G237_10E/GpL16-k0 (antibody, human IgG1, kappa)
heavy 1: not shown
heavy 2: not shown
light: B1 light
notes: as for B1
B17: GpH7-A5/GpH7-B3 variant P238_04F/GpL16-k0 (antibody, human IgG1, kappa)
heavy 1: not shown
heavy 2: not shown
light: B1 light
notes: as for B1
B18: GpH7-A5/GpH7-B3 variant L235_09D/GpL16-k0 (antibody, human IgG1, kappa)
heavy 1: not shown
heavy 2: not shown
light: B1 light
notes: as for B1
B19: GpH7-A5/GpH7-B3 variant S239_01G/GpL16-k0 (antibody, human IgG1, kappa)
heavy 1: not shown
heavy 2: not shown
light: B1 light
notes: as for B1
B20: GpH7-A5/GpH7-B3 variant G237_06M/GpL16-k0 (antibody, human IgG1, kappa)
heavy 1: not shown
heavy 2: not shown
light: B1 light
notes: as for B1
B21: GpH7-A5/GpH7-B3 variant G237_04F/GpL16-k0 (antibody, human IgG1, kappa)
heavy 1: not shown
heavy 2: not shown
light: B1 light
notes: as for B1
B22: GpH7-A5/GpH7-B3 variant P238_09D/GpL16-k0 (antibody, human IgG1, kappa)
heavy 1: not shown
heavy 2: not shown
light: B1 light
notes: as for B1
B23: GpH7-A5/GpH7-B3 variant G236_09D/GpL16-k0 (antibody, human IgG1, kappa)
heavy 1: not shown
heavy 2: not shown
light: B1 light
notes: as for B1
B24: GpH7-A5/GpH7-B3 variant E269_18N/GpL16-k0 (antibody, human IgG1, kappa)
heavy 1: not shown
heavy 2: not shown
light: B1 light
notes: Heterodimerized anti-glypican-3 IgG1 with the alteration in only one H chain; also called He Ab
B25: GpH7-A5/GpH7-B3 variant Q295_09D/GpL16-k0 (antibody, human IgG1, kappa)
heavy 1: not shown
heavy 2: not shown
light: B1 light
notes: as for B24
B26: GpH7-A5/GpH7-B3 variant Q295_01G/GpL16-k0 (antibody, human IgG1, kappa)
heavy 1: not shown
heavy 2: not shown
light: B1 light
notes: as for B24
B27: GpH7-A5/GpH7-B3 variant E269_19Q/GpL16-k0 (antibody, human IgG1, kappa)
heavy 1: not shown
heavy 2: not shown
light: B1 light
notes: as for B24
B28: GpH7-A5/GpH7-B3 variant Q295_02A/GpL16-k0 (antibody, human IgG1, kappa)
heavy 1: not shown
heavy 2: not shown
light: B1 light
notes: as for B24
B29: GpH7-A5/GpH7-B3 variant P271_20W/GpL16-k0 (antibody, human IgG1, kappa)
heavy 1: not shown
heavy 2: not shown
light: B1 light
notes: as for B24

Biological target: T1, FcγRIa (human, UniProt P12314 16-292)
T1 construct: extracellular domain; Soluble extracellular domain with C-terminal His tag, used as analyte in Biacore; also called FcgRI; 1a; not shown: His tag attached to the C terminus
T1 sequence (P12314 16-292): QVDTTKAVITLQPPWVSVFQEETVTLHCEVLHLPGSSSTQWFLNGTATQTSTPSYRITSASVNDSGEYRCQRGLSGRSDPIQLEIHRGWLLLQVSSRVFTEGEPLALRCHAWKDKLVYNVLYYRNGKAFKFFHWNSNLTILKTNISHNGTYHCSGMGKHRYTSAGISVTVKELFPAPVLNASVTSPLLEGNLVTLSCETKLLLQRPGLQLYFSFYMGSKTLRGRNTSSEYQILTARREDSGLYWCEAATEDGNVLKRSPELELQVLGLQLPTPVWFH
Test: SPR (Biacore); He/Con_1a divided by He/Con_2b (binding to FcγRIa against binding to FcγRIIb)
Method: (§1) The heterodimerized antibodies He Abs in which one of the H chains was introduced with an alteration were assayed for their binding activities to each activating FcγR and inhibitory FcγR according to the method described in Example 4. […] The activating FcγRs in FIGS. 26, 27, 28, and 29 are FcγRIa, FcγRIIa (R), FcγRIIa (H), and FcγRIIIa, respectively.
(§2) Analysis of interaction between objective antibody and the FcγR was carried out using Biacore T100 (GE Healthcare). HBS-EP+ (GE Healthcare) was used as the running buffer, and the measurement temperature was set to 25° C. Chips produced by immobilizing the antigen peptide by the amine coupling method to a Series S Sencor Chip CM5 (GE Healthcare), or alternatively, chips produced by allowing preliminarily biotinylated antigen peptides to interact with and immobilize onto a Series S Sensor Chip SA (certified) (GE Healthcare) were used. Antibodies of interest were captured onto an antigen peptide-immobilized chip, and allowed to interact to each FcγR diluted with running buffer. To regenerate and repeatedly use the chip, the antibodies captured on the chip were washed off by reacting 10 mM glycine-HCl, pH 1.5.

Row | Binder | He_1a/2b (Ia/IIb)
1 | B1 | 0.73 ratio
2 | B2 | 0.65 ratio
3 | B3 | 0.52 ratio
4 | B4 | 0.46 ratio
5 | B5 | 0.77 ratio
6 | B6 | 0.59 ratio
7 | B7 | 0.41 ratio
8 | B8 | 0.44 ratio
9 | B9 | 0.63 ratio
10 | B10 | 0.38 ratio
11 | B11 | 0.65 ratio
12 | B12 | 0.49 ratio
13 | B13 | 0.54 ratio
14 | B14 | 0.71 ratio
15 | B15 | 0.46 ratio
16 | B16 | 0.66 ratio
17 | B17 | 0.32 ratio
18 | B18 | 0.8 ratio
19 | B19 | 0.7 ratio
20 | B20 | 0.63 ratio
21 | B21 | 0.55 ratio
22 | B22 | 0.43 ratio
23 | B23 | 0.58 ratio

Biological target: T2, FcγRIIIa extracellular domain with C-terminal His tag (human, UniProt P08637 17-208)
T2 construct: extracellular domain; also called FcgRIIIa; 3a; not shown: His tag attached to the C terminus
T2 sequence (P08637 17-208): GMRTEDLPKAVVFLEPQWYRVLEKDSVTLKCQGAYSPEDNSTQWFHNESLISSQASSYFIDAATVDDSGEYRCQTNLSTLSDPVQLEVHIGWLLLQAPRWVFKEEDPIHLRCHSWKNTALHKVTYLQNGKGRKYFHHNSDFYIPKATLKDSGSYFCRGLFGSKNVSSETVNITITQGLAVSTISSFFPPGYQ
Test: SPR (Biacore); He/Con_3a divided by He/Con_2b (FcγRIIIa over FcγRIIb)
Method: as §1, §2

Row | Binder | He_3a/2b
24 | B24 | 1.29 ratio
25 | B25 | 1.34 ratio
26 | B26 | 1.59 ratio
27 | B27 | 1.47 ratio
28 | B28 | 1.32 ratio
29 | B29 | 1.28 ratio

Biological target: T3, FcγRIIb (human, UniProt P31994 43-217)
T3 construct: extracellular domain; Soluble extracellular domain with C-terminal His tag, used as analyte in Biacore; also called FcgRIIb; 2b; not shown: His tag attached to the C terminus
T3 sequence (looked up): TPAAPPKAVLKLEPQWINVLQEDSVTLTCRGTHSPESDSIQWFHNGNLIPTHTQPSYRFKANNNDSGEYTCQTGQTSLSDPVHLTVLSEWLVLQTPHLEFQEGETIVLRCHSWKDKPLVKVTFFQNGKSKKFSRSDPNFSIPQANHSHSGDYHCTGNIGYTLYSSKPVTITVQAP
Test: SPR (Biacore), antibody captured, FcγR as analyte; relative to GpH7-A5/GpH7-B3/GpL16-k0 = 100
Method: as §1, §2

Row | Binder | He/Con_2b
30 | B1 | 124 % of control (=100)
31 | B2 | 149 % of control (=100)
32 | B3 | 152 % of control (=100)
33 | B4 | 218 % of control (=100)
34 | B5 | 108 % of control (=100)
35 | B6 | 174 % of control (=100)
36 | B7 | 193 % of control (=100)
37 | B8 | 232 % of control (=100)
38 | B9 | 147 % of control (=100)
39 | B10 | 223 % of control (=100)
40 | B11 | 150 % of control (=100)
41 | B12 | 204 % of control (=100)
42 | B13 | 148 % of control (=100)
43 | B14 | 140 % of control (=100)
44 | B15 | 180 % of control (=100)
45 | B16 | 114 % of control (=100)
46 | B17 | 312 % of control (=100)
47 | B18 | 106 % of control (=100)
48 | B19 | 144 % of control (=100)
49 | B20 | 130 % of control (=100)
50 | B21 | 149 % of control (=100)
51 | B22 | 221 % of control (=100)
52 | B23 | 167 % of control (=100)

Biological target: T1, FcγRIa
Test: as above
Method: as §1, §2

Row | Binder | He/Con_1a
53 | B1 | 90.3 % of control (=100)
54 | B2 | 97.1 % of control (=100)
55 | B3 | 79.6 % of control (=100)
56 | B4 | 101 % of control (=100)
57 | B5 | 82.8 % of control (=100)
58 | B6 | 102 % of control (=100)
59 | B7 | 78.4 % of control (=100)
60 | B8 | 102 % of control (=100)
61 | B9 | 92.8 % of control (=100)
62 | B10 | 84 % of control (=100)
63 | B11 | 97.8 % of control (=100)
64 | B12 | 101 % of control (=100)
65 | B13 | 79.6 % of control (=100)
66 | B14 | 99.8 % of control (=100)
67 | B15 | 82.5 % of control (=100)
68 | B16 | 75.1 % of control (=100)
69 | B17 | 101 % of control (=100)
70 | B18 | 84.8 % of control (=100)
71 | B19 | 101 % of control (=100)
72 | B20 | 81.6 % of control (=100)
73 | B21 | 81.5 % of control (=100)
74 | B22 | 96 % of control (=100)
75 | B23 | 96.6 % of control (=100)

Biological target: T2, FcγRIIIa extracellular domain with …
Test: SPR (Biacore), antibody captured, FcγR as analyte; binding activity relative to control heterodimerized antibody
Method: as §1, §2

Row | Binder | He/Con_3a
76 | B24 | 57.8 % of GpH7-A5/GpH7-B3/GpL16-k0 (=100)
77 | B25 | 81.5 % of GpH7-A5/GpH7-B3/GpL16-k0 (=100)
78 | B26 | 73 % of GpH7-A5/GpH7-B3/GpL16-k0 (=100)
79 | B27 | 65 % of GpH7-A5/GpH7-B3/GpL16-k0 (=100)
80 | B28 | 106 % of GpH7-A5/GpH7-B3/GpL16-k0 (=100)
81 | B29 | 74.1 % of GpH7-A5/GpH7-B3/GpL16-k0 (=100)

Biological target: T4, FcγRIIb extracellular domain with C-terminal His tag (human, UniProt P31994 43-217)
T4 construct: extracellular domain; Soluble receptor expressed in FreeStyle293 cells and used as analyte in Biacore; also called FcgRIIb; 2b; not shown: His tag attached to the C terminus
T4 sequence (looked up): T3 sequence (looked up)
Test: as above
Method: as §1, §2

Row | Binder | He/Con_2b
82 | B24 | 44.8 % of GpH7-A5/GpH7-B3/GpL16-k0 (=100)
83 | B25 | 60.8 % of GpH7-A5/GpH7-B3/GpL16-k0 (=100)
84 | B26 | 46 % of GpH7-A5/GpH7-B3/GpL16-k0 (=100)
85 | B27 | 44.3 % of GpH7-A5/GpH7-B3/GpL16-k0 (=100)
86 | B28 | 79.7 % of GpH7-A5/GpH7-B3/GpL16-k0 (=100)
87 | B29 | 58.1 % of GpH7-A5/GpH7-B3/GpL16-k0 (=100)
